Experimental data from PMC5821828, “A Genetic Screen for Investigating the Human Lysosomal CystineTransporter, Cystinosin” (Scientific Reports, 2018).
Residue numbers refer to the chain shown, from its start. In names and notes the source's numbering stands.

B1: CTNS WT (human cystinosin with GYDQL motif) (Homo sapiens) (protein)
chain: SVSLTVPPVVKLENGSSTNVSLTLRPPLNATLVITFEITFRSKNITILELPDEVVVPPGVTNSSFQVTSQNVGQLTVYLHGNHSNQTGPRIRFLVIRSSAISIINQVIGWIYFVAWSISFYPQVIMNWRRKSVIGLSFDFVALNLTGFVAYSVFNIGLLWVPYIKEQFLLKYPNGVNPVNSNDVFFSLHAVVLTLIIIVQCCLYERGGQRVSWPAIGFLVLAWLFAFVTMIVAAVGVTTWLQFLFCFSYIKLAVTLVKYFPQAYMNFYYKSTEGWSIGNVLLDFTGGSFSLLQMFLQSYNNDQWTLIFGDPTKFGLGVFSIVFDVVFFIQHFCLYRKRPGYDQLN
notes: full-length, untagged, plasmid p416TEF (TEF-CTNS, ABE 3006), expressed in S. cerevisiae vps1Δvps17Δ; uptake across plasma membrane
B2: CTNS-Δgydql (Homo sapiens; G197R) (protein)
chain: SVSLTVPPVVKLENGSSTNVSLTLRPPLNATLVITFEITFRSKNITILELPDEVVVPPGVTNSSFQVTSQNVGQLTVYLHGNHSNQTGPRIRFLVIRSSAISIINQVIGWIYFVAWSISFYPQVIMNWRRKSVIGLSFDFVALNLTGFVAYSVFNIGLLWVPYIKEQFLLKYPNRVNPVNSNDVFFSLHAVVLTLIIIVQCCLYERGGQRVSWPAIGFLVLAWLFAFVTMIVAAVGVTTWLQFLFCFSYIKLAVTLVKYFPQAYMNFYYKSTEGWSIGNVLLDFTGGSFSLLQMFLQSYNNDQWTLIFGDPTKFGLGVFSIVFDVVFFIQHFCLYRKRP
notes: lacks C-terminal GYDQLN (lysosomal targeting motif; Y363 and L366), untagged, p416TEF (ABE 3513), expressed in S. cerevisiae vps1Δvps17Δ (ABC 5017)
B3: CTNS-Δgydql (Homo sapiens; G309C) (protein)
chain: B2 chain with R175G, G287C
notes: as for B2
B4: CTNS-Δgydql (Homo sapiens; G131S) (protein)
chain: B2 chain with G109S, R175G
notes: as for B2
B5: CTNS-Δgydql (Homo sapiens; S270T) (protein)
chain: B2 chain with R175G, S248T
notes: as for B2

Legend:
[1] = system: T1, N[C@@H](CSSC[C@H](N)C(=O)O)C(=O)O; assay: cells, lysate or membranes; format: cell-based, Homo sapiens; settings: pH 5.5 (MES), 2% glucose, 30 °C, vps1Δvps17Δ yeast, labelled compound
T1 construct: lacks C-terminal GYDQLN (lysosomal targeting motif; Y363 and L366), untagged, p416TEF (ABE 3513), expressed in S. cerevisiae vps1Δvps17Δ (ABC 5017)

[2] = substrate: N[C@@H](CSSC[C@H](N)C(=O)O)C(=O)O; assay: cells, lysate or membranes; format: cell-based, Homo sapiens; settings: pH 5.5 (MES), 2% glucose, 30 °C, vps1Δvps17Δ yeast, labelled compound

Molecule	Km [1] [µM]	Km [2] [µM]
CTNS-Δgydql (Homo sapiens; DEL362-367)	254.4 ± 61	–
B1	–	400 ± 133
B2	–	97.3 ± 30.9
B3	–	124.8 ± 23.5
B4	–	130.4 ± 10.9
B5	–	207.2 ± 41.5
